{
  "source": "patent US7125850B2",
  "about": "“Methods of identifying inhibitors of GADD45 polypeptide activity, and inhibitors of such activity” (The United States of America as represented by the …, priority 1999, dated 2006)",
  "molecules": {"B1": {"name": "GST-GADD45: recombinant glutathione-S-transferase (GST)/GADD45 fusion protein on Sepharose beads (protein)", "chain": "TLEEFSAGEQKTERMDKVGDALEEVLSKALSQRTITVGVYEAAKLLNVDPDNVVLCLLAADEDDDRDVALQIHFTLIQAFCCENDINILRVSNPGRLAELLLLETDAGPAASEGAEQPPDLHCVLVTNPHSSQWKDPALSQLICFCRESRYMDQWVPVINLPER", "modifications": "left off: a dimerising Fc or GST", "notes": "recombinant glutathione-S-transferase (GST)/GADD45 fusion protein on Sepharose beads"}, "B2": {"name": "Myc-tagged GADD45: GADD45 tagged with 6 copies of the Myc epitope, expressed in RKO cells (protein)", "chain": "MTLEEFSAGEQKTERMDKVGDALEEVLSKALSQRTITVGVYEAAKLLNVDPDNVVLCLLAADEDDDRDVALQIHFTLIQAFCCENDINILRVSNPGRLAELLLLETDAGPAASEGAEQPPDLHCVLVTNPHSSQWKDPALSQLICFCRESRYMDQWVPVINLPER", "modifications": "left off: small tags and cut ends"}},
  "key": {"RKO cells": {"system": "RKO cells", "experiment": "Flow cytometry cell cycle analysis of RKO cells after base-damaging agent", "type": "cell-based, human", "conditions": "parental RKO cells, 25 μg/ml", "description": "Using flow cytometry analysis, cell cycle distributions of unsynchronized cell populations were performed (for flow cytometry analysis, cells were harvested with 3.5 mM EDTA-PBS buffer, fixed with 70% ethanol for at least 1 hr at 4° C., treated with 20 μg/ml RNase A for 30 min, stained with 60 μg/ml of propidium iodide (PI) for DNA content, and analyzed for cell cycle status with a FACScan cell sorter (Becton Dickinson). At least 10,000 cells were collected. The cell cycle profiles were calculated using the CellQuest and ModFit Lt software. Experiments were repeated at least twice.) The parental human RKO colon carcinoma cells and three isogenic RKO-derived clones stably expressing antisense GADD45 mRNA (discussed above) were analyzed.\nCells were treated with base-damaging agents: either 6.3 Gy of γ-radiation; 5 J/m^2 of UV; or, 25 μg/ml of the base-damaging alkylating agent MMS. These doses for MMS and UV radiation were selected because they were not toxic to these cells in a short-term growth assay. […] The cell cycle status of the cells was then analyzed and quantitated by flow cytometric analysis profile (as described above). […] IR caused a significant accumulation in G2/M with concomitant reductions in G1 and S in all four cell lines."}, "cellular Cdc2": {"target": "T1, cellular Cdc2 (Homo sapiens, UniProt P06493)", "T1 construct": "GST-GADD45 fusion protein were incubated with one mg of RKO cellular protein; endogenous in cells; host or cells: RKO (human colon carcinoma)", "T1 sequence (P06493 whole entry, the tested form may be a part)": "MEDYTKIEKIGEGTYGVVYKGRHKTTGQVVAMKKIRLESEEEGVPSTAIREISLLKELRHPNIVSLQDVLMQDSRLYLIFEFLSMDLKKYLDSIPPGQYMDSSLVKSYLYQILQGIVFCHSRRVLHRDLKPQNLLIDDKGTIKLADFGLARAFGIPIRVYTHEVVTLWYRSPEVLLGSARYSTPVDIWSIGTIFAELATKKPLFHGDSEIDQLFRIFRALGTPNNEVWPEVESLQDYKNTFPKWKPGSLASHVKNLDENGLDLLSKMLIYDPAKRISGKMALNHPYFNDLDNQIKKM", "experiment": "GST pull-down from RKO cell lysate, immunoblot for Cdc2", "type": "binding", "conditions": "100 ng protein, 1 mg RKO cellular protein", "text": "For these experiments, a recombinant glutathione-S-transferase (GST)/GADD45 fusion protein was constructed. The GADD45 insert was PCR amplified from pHul45B2 using the following primers: (SEQ ID NO:3) 5′[…] 3′ and (SEQ ID NO:4) 5′[…] 3′. Products were cloned into a pcrII vector using the TA cloning kit (Invitrogen, San Diego, Calif.). A representative clone was confirmed by sequencing. The selected insert was removed by XhoI and NotI digestion, gel purified using the Wizard DNA Purification Kit (Promega, Madison, Wis.), and ligated into the XhoI/ NotI digested pGEX4T vector (Pharmacia, Piscataway, N.J.). GST-GADD45 fusion protein induction was prepared from freshly transformed BL21 bacterial cells (Novagen). 150 ml of overnight culture was diluted into 1L of LB with ampicillin and grown at 37° C. to late growth phase (OD600 was approximately 0.8). […]\nTo detect binding of cellular Cdc2 to GST-tagged GADD45, 100 ng of GST or GST-GADD45 fusion protein were incubated with one mg of RKO cellular protein for 4 hr at […]. […] Antibody was detected by a chemiluminescence system in accordance with the instructions of the manufacturer (Amersham, Buckinghamshire, England)\n(§1) GST-GADD45 fusion protein or GST alone, which were linked to Sepharose beads, were incubated with cellular lysates, isolated, and analyzed by immunoblotting, as described above."}, "cyclin B1": {"target": "T2, cyclin B1 (Homo sapiens, UniProt P14635)", "T2 construct": "endogenous in cells; host or cells: RKO (human colon carcinoma)", "T2 sequence (P14635 whole entry, the tested form may be a part)": "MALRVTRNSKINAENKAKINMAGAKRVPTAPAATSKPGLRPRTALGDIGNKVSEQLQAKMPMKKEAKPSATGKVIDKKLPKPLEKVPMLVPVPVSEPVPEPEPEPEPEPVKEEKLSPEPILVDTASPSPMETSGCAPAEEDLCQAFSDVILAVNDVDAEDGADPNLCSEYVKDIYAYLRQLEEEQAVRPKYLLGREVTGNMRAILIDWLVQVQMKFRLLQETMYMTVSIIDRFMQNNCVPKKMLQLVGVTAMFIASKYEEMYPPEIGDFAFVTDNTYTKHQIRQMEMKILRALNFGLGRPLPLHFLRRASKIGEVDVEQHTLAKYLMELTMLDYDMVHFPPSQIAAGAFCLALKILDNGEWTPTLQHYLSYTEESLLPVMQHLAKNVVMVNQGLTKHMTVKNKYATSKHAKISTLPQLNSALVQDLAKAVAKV", "experiment": "GST pull-down from RKO cell lysate, immunoblot for cyclin B1", "type": "binding", "conditions": "100 ng protein, 1 mg RKO cellular protein", "description": "To detect binding of cellular Cdc2 to GST-tagged GADD45, 100 ng of GST or GST-GADD45 fusion protein were incubated with one mg of RKO cellular protein for 4 hr at […]. Complexes were then washed three times with lysis buffer and loaded onto a 12% SDS-PAGE gel. Following electrophoresis, the proteins were electrophoretically transferred to Immobin membranes (Millipore, Bedford, Mass.). The membranes were blocked for 30 min in 5% nonfat milk and then incubated with anti-Cdc2 (Santa Cruz Biotechnology, Santa Cruz, Calif.) and anti-cyclin B1 (Pharmingen, San Diego, Calif.) monoclonal mouse antibodies. Antibody was detected by a chemiluminescence system in accordance with the instructions of the manufacturer (Amersham, Buckinghamshire, England)\nas §1"}, "Cdk2": {"target": "T3, Cdk2 (Homo sapiens, UniProt P24941)", "T3 construct": "GST-GADD45 fusion protein were incubated with one mg of RKO cellular protein; endogenous in cells; host or cells: RKO (human colon carcinoma)", "experiment": "GST pull-down from RKO cell lysate, immunoblot for Cdk2", "type": "binding"}, "Cdc2": {"target": "Cdc2 (Homo sapiens, UniProt P06493)", "sequence (P06493 whole entry)": "as the sequence (P06493 whole entry, the tested form may be a part) above", "experiment": "Co-immunoprecipitation of Myc-tagged GADD45 with Cdc2 antibody in transfected RKO cells", "type": "cell-based", "parameters": "endogenous in cells; host or cells: RKO (human colon carcinoma)", "text": "In order to determine if GADD45 associates with Cdc2 in vivo, RKO cells were transfected with Myc-epitope-tagged expression vectors. To construct the Myc-tag-GADD45 expression vector, internal GADD45 primers were designed to contain an in-frame 5′ NdeI site and were used to amplify the desired regions from a human GADD45 cDNA construct. PCR products were cloned into the pcrII vector using the TA Kit (Invitrogen, Carlsbad, Calif.) and sequenced prior to subcloning into XhoI/XbaI cut pCS2MT. This allowed expression of the GADD45 constructs tagged with 6 copies of the Myc epitope recognized by the monoclonal 9E10 antibody at the amino-terminus (Rupp (1994) Genes Dev. 8:1311–1323; Turner (1994) Genes Dev. 8:1434–1447).\nFor mammalian cell transfection, 10^6 RKO cells were seeded onto 100 mm plates the day before transfection. […]\nLysates from cells expressing Myc-tag-GADD45 fusion protein or unfused Myc-tag were immunoprecipitated with antibodies to c-myc and Cdc2 (both from Santa Cruz Biotech.). […] Following immunoblot analysis, the Myc-tagged GADD45 protein was detected in both the cell lysate and after immunoprecipitation with anti-Myc antibody. […] After immunoprecipitation with Cdc2 antibody, Myc-tagged GADD45 was also detected. No GADD45 was detected with (i.e., was co-immunoprecipitated by) the control antibodies. […]"}},
  "data": [
    {"molecule": "COS(C)(=O)=O", "note": "[MMS, methyl methanesulfonate]", "values": [
      {"measurement": "cell cycle accumulation", "setting": "RKO cells", "value": "accumulated in S and G2/M"}
    ]},
    {"molecule": "B1", "values": [
      {"measurement": "association with cellular Cdc2", "setting": "cellular Cdc2", "value": "found to associate"},
      {"measurement": "association with cyclin B1", "setting": "cyclin B1", "value": "did not associate"},
      {"measurement": "association with Cdk2", "setting": "Cdk2", "value": "No association"}
    ]},
    {"molecule": "B2", "values": [
      {"measurement": "detection after immunoprecipitation with Cdc2 antibody", "setting": "Cdc2", "value": "also detected"}
    ]}
  ]
}
